Assay: preparative SEC and analytical FSEC homogeneity
Details: glycan lost; control: mG6PC1-WT

B1: mouse glucose-6-phosphatase catalytic subunit 1 (mG6PC1): N96A (protein)
parent chain: MEEGMNILHDFGIQSTRYLQVNYQDSQDWFILVSVIADLRNAFYVLFPIWFHLKETVGINLLWVAVVGDWFNLVFKWILFGQRPYWWVLDTDYYSNSSVPIIKQFPVTCETGPGSPSGHAMGAAGVYYVMVTSTLAIFRGKKKPTYGFRCLNVILWLGFWAVQLNVCLSRIYLAAHFPHQVVAGVLSGIAVAETFSHIRGIYNASLRKYCLITIFLFGFALGFYLLLKGLGVDLLWTLEKAKRWCERPEWVHLDTTPFASLFKNLGTLLGLGLALNSSMYRKSCKGELSKLLPFRFACIVASLVLLHLFDSLKPPSQVELIFYILSFCKSATVPFASVSLIPYCLARILGQTHKKSL
stability_or_folding: no change

From PMC8753184
